# Results taken from article PMC11712212 (Chemical Science, 2024).
# Bridge positions count the residues as written; N and C are the ends. Ends that are not written are not given here. Peptide text beside a SMILES is read from it.
# T1: QTGG, short SUMO-1 remnant after trypsin and Glu-C digestion
# T1 sequence (peptide): QTGG
# Experiments:
# QTGG = QTGG (Homo sapiens, UniProt P63165); assay: Isothermal titration calorimetry; assay type: binding
# DV12 ([…]) = DV12 ([…]) (Homo sapiens, UniProt P63165); assay: Biolayer interferometry; assay type: binding
# SUMO-1 protein = SUMO-1 protein (UniProt P63165 1-97); assay: BLI
# Chain of SUMO-1 protein (P63165 1-97): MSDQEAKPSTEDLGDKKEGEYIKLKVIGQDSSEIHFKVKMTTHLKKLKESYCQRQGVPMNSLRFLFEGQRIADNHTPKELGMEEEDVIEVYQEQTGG
# [1] = molecular target: T1, QTGG, short SUMO-1 remnant after trypsin and Glu-C digestion; assay: ITC
molecule,measurement,setting,value
"CC(C)C[C@@H]1NC(=O)[C@H](Cc2c[nH]c3ccccc23)NC(=O)[C@H](CCCCN)NC(=O)[C@H](CCC(=O)O)NC(=O)[C@@H]2CCCN2C(=O)[C@@H](N)CSSC[C@@H](C(=O)O)NC(=O)[C@H]([C@@H](C)O)NC(=O)CNC1=O [CP-1, CPEKWLGTC] (HELM PEPTIDE1{C.P.E.K.W.L.G.T.C}$PEPTIDE1,PEPTIDE1,1:R3-9:R3$$$V2.0; N-terminus and C-terminus assumed)",Kd,QTGG,71.8 nM
"CC(C)C[C@H](NC(=O)[C@@H](N)CCCCN)C(=O)N[C@@H](CCCNC(=N)N)C(=O)N[C@@H](Cc1c[nH]c2ccccc12)C(=O)N[C@H](C(=O)N[C@@H](CC(=O)O)C(=O)N[C@@H](Cc1ccc(O)cc1)C(=O)N[C@@H](C)C(=O)N[C@@H](CCCCN)C(=O)N[C@@H](CCCCN)C(=O)N[C@@H](CCCNC(=N)N)C(=O)N[C@@H](CCCCN)C(=O)O)[C@@H](C)O [PEP-4, KLRWTDYAKKRK] (H-KLRWTDYAKKRK-OH)",Kd,DV12 ([…]),2 nM
KLRWTDYAKKRK [PEP-4 (KLRWTDYAKKRK)],Kd,SUMO-1 protein,43.7 nM
CMTPNPTTC (disulfide 1-9) [CP-2 (…)],Kd,[1],1800 nM
"CPEKWLGTC (disulfide 1-9) [CP-1 (…), cystine-linked cyclic peptide]",Kd,[1],71.8 nM
